# From the supplement of paper PMC12764529
# ± gives the half width of the 95% confidence interval.
# How the values were obtained:
# [1] = folding stability dG unfold from trypsin proteolysis; higher = more stable
# Procedure, shortened: (§1)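 Bayesian fitting of sequencing counts gave K50 for each design. Unfolding free energy followed by setting this against a sequence-predicted unfolded-state K50 and a shared folded-state K50, either per protease or with trypsin and chymotrypsin combined. The designs, under 80 residues and lacking cysteine, were digested in a PA-tagged cDNA display format at 11 threefold-diluted protease concentrations and without protease, and only those with AlphaFold2 dimer inter-PAE above 15 were kept.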
# [2] = folding stability dG unfold from chymotrypsin proteolysis; higher = more stable
# Procedure, shortened: as §1
# [3] = folding stability dG unfold (combined trypsin and chymotrypsin); higher = more stable
# Procedure, shortened: as §1
sequence,measurement,setting,value
SAGGSAGGSLRLRVTFTVTVTFLDGNRLRPAKVEITVEIELEPIPPELLRPRPLPGDKLEYDLSAGGSAGGS [r12_1031_TrMRF],folding stability dG unfold,[1],2.72 ± 0.17 kcal/mol
same,folding stability dG unfold,[2],3.29 ± 0.045 kcal/mol
same,folding stability dG unfold,[3],3.16 ± 0.25 kcal/mol
SAGGSAGGSMEVDIEVETLETEVSFLPGDLIKVKKLVKITLPNGEVLEEETEEIIPKSEIGKLSAGGSAGGS [r12_1028_JUSTAS],folding stability dG unfold,[1],0.808 ± 0.078 kcal/mol
same,folding stability dG unfold,[2],-0.00695 ± 0.12 kcal/mol
same,folding stability dG unfold,[3],0.419 ± 0.24 kcal/mol
SAGGSAGGSMEVNLKVTVTYPDGTVVELEIPKVSTEDGKSVEDVAKEIEALPDVKEVEVEIVESAGGSAGGS [r12_199_JUSTAS],folding stability dG unfold,[1],0.847 ± 0.13 kcal/mol
same,folding stability dG unfold,[2],2.03 ± 0.1 kcal/mol
same,folding stability dG unfold,[3],1.55 ± 0.27 kcal/mol
SAGGSAGGSMEVTYDEETGELTVRIEVDGKTLTLKFKSIEDLKAALEKLGIDVDDVKIVEIEPSAGGSAGGS [r12_834_TrROS_Hall],folding stability dG unfold,[1],4.18 ± 0.3 kcal/mol
same,folding stability dG unfold,[2],4.75 ± 0.089 kcal/mol
same,folding stability dG unfold,[3],4.67 ± 0.14 kcal/mol
SAGGSAGGSMIDDIVEKLKIPPGTRIVFNDGEVKYFDNREDIKEWAKNGYPAEKLKNIVAFPESAGGSAGGS [r12_430_TrMRF],folding stability dG unfold,[1],-0.276 ± 0.15 kcal/mol
same,folding stability dG unfold,[2],0.491 ± 0.1 kcal/mol
same,folding stability dG unfold,[3],0.251 ± 0.12 kcal/mol
SAGGSAGGSMIEVVKFPNGITLEYFPETNTYRAFNPSTNTTTTFPPGVSFEEAVEAVKKGNLVSAGGSAGGS [r12_832_JUSTAS],folding stability dG unfold,[1],4.1 ± 0.091 kcal/mol
same,folding stability dG unfold,[2],3.82 ± 0.017 kcal/mol
same,folding stability dG unfold,[3],3.88 ± 0.041 kcal/mol
SAGGSAGGSMITLTLPDEEALRAYVEQLVADAGTEITEVTVTPLAPDTVEAEVSIDPTDPVGLSAGGSAGGS [r12_647_JUSTAS],folding stability dG unfold,[1],1.09 ± 0.022 kcal/mol
same,folding stability dG unfold,[2],0.426 ± 0.065 kcal/mol
same,folding stability dG unfold,[3],0.858 ± 0.098 kcal/mol
SAGGSAGGSMKITINKWDPDNGNIMVTIQMPGQPVEIMIPWNNVDKLLEKLPFPGMKIDEIYPSAGGSAGGS [r12_23_TrROS],folding stability dG unfold,[1],1.11 ± 0.1 kcal/mol
same,folding stability dG unfold,[2],0.718 ± 0.23 kcal/mol
same,folding stability dG unfold,[3],1.14 ± 0.23 kcal/mol
SAGGSAGGSMKITVEKDENGNYRVTVTLTVNGKEIKLTVTVPKNTTPEEVKKKAEELAKELLKSAGGSAGGS [r12_69_TrROS_Hall],folding stability dG unfold,[1],4.39 ± 0.55 kcal/mol
same,folding stability dG unfold,[2],5.13 ± 0.44 kcal/mol
same,folding stability dG unfold,[3],> 6 kcal/mol
SAGGSAGGSMKKIKIEVYNKDGSKTELPLSEILKLYDFDAEEIKKFLEKLFPKDVKFKIEIEGSAGGSAGGS [r12_399_TrMRF],folding stability dG unfold,[1],1.33 ± 0.061 kcal/mol
same,folding stability dG unfold,[2],2.53 ± 0.05 kcal/mol
same,folding stability dG unfold,[3],2.31 ± 0.17 kcal/mol
SAGGSAGGSMKLPPELKGKKIRIRVRNKNGETVEAEATVLEDGTIEIKIEGLSEEEITEIEIESAGGSAGGS [r12_477_TrROS_Hall],folding stability dG unfold,[1],2.36 ± 0.038 kcal/mol
same,folding stability dG unfold,[2],2.21 ± 0.035 kcal/mol
same,folding stability dG unfold,[3],2.3 ± 0.076 kcal/mol
SAGGSAGGSMKLVTVKMKRPNGPVELTPVLPVDPSETLEEVKERVLELYPGAEITEITVTPDESAGGSAGGS [r12_738_JUSTAS],folding stability dG unfold,[1],-0.358 ± 0.11 kcal/mol
same,folding stability dG unfold,[2],0.708 ± 0.15 kcal/mol
same,folding stability dG unfold,[3],0.457 ± 0.15 kcal/mol
SAGGSAGGSMKTITVPPEVLAALPLEEIVERNTSPDEEVEVEFVEEPGPVTVIIDTKKKPEHHSAGGSAGGS [r12_716_JUSTAS],folding stability dG unfold,[1],-0.95 ± 0.26 kcal/mol
same,folding stability dG unfold,[2],0.551 ± 0.015 kcal/mol
same,folding stability dG unfold,[3],0.252 ± 0.092 kcal/mol
SAGGSAGGSMKVEIKFPDGSVKTIPLSPEEPDVPPEALVKELGADNVTITYYTPDGVPINLGISAGGSAGGS [r12_411_JUSTAS],folding stability dG unfold,[1],0.297 ± 0.058 kcal/mol
same,folding stability dG unfold,[2],0.916 ± 0.03 kcal/mol
same,folding stability dG unfold,[3],0.706 ± 0.053 kcal/mol
SAGGSAGGSMKVVKVELTLTGPGGEVTYLEEEIEVPEDELGEIEVSLPDENLSYEVTVEVIEESAGGSAGGS [r12_354_JUSTAS],folding stability dG unfold,[1],0.444 ± 0.12 kcal/mol
same,folding stability dG unfold,[2],1.41 ± 0.071 kcal/mol
same,folding stability dG unfold,[3],1.12 ± 0.18 kcal/mol
SAGGSAGGSMLEEKIKQVPKSEKATITIKVKNENGKWKVVTVEVTYIEGKNEYEVKITITPEPGSAGGSAGG [r6_545_JUSTAS],folding stability dG unfold,[1],1.73 ± 0.2 kcal/mol
same,folding stability dG unfold,[2],3.04 ± 0.18 kcal/mol
same,folding stability dG unfold,[3],2.29 ± 0.3 kcal/mol
SAGGSAGGSMLVLHLPNGKEIPIPPGEFSEDTGVEDIAARIPPEVRRLRIYNEDGTEVEVPIDSAGGSAGGS [r20_161_TrMRF],folding stability dG unfold,[1],0.00521 ± 0.4 kcal/mol
same,folding stability dG unfold,[2],0.479 ± 0.39 kcal/mol
same,folding stability dG unfold,[3],0.32 ± 0.18 kcal/mol
SAGGSAGGSMPFKIDVEVERHPEDNMYQVEITFPGNREIPIMVDDPSDPEKAKNIAKEFAKQLSAGGSAGGS [r12_1012_TrROS],folding stability dG unfold,[1],0.13 ± 0.082 kcal/mol
same,folding stability dG unfold,[2],-0.648 ± 0.7 kcal/mol
same,folding stability dG unfold,[3],-0.0883 ± 0.13 kcal/mol
SAGGSAGGSMPTLRVKIEVTNPDGEKLELTITVPRDMTLEELKALAEELAKAGYEVRIVEVEPSAGGSAGGS [r12_804_TrROS_Hall],folding stability dG unfold,[1],3.61 ± 0.15 kcal/mol
same,folding stability dG unfold,[2],2.83 ± 0.069 kcal/mol
same,folding stability dG unfold,[3],3.19 ± 0.17 kcal/mol
SAGGSAGGSMPVKRELIITVTEPSSGTTRTLVVEVETEEEAEAVVAAVAAVPDRTVTEVRRLASAGGSAGGS [r12_152_JUSTAS],folding stability dG unfold,[1],0.109 ± 0.083 kcal/mol
same,folding stability dG unfold,[2],1.26 ± 0.022 kcal/mol
same,folding stability dG unfold,[3],0.926 ± 0.057 kcal/mol
SAGGSAGGSMPVKVITTISRETVPLPNGDPGARYTVTTTVTTDSTVVSTTTTTFSSEAELAAASAGGSAGGS [r12_461_JUSTAS],folding stability dG unfold,[1],1.08 ± 0.035 kcal/mol
same,folding stability dG unfold,[2],0.854 ± 0.12 kcal/mol
same,folding stability dG unfold,[3],0.894 ± 0.084 kcal/mol
SAGGSAGGSMRIKTIKVIPQDDGMYSINITFPGVEREIPIPPQMPPDQITEIEIPIYFDGEPPSAGGSAGGS [r12_673_TrROS],folding stability dG unfold,[1],-0.257 ± 0.16 kcal/mol
same,folding stability dG unfold,[2],0.436 ± 0.12 kcal/mol
same,folding stability dG unfold,[3],0.212 ± 0.097 kcal/mol
SAGGSAGGSMRLTVEVSSLEEAEKLAEEIEERFDVEIVRVEVEETEEGGLRVTFDVKLHPDLGSAGGSAGGS [r12_577_TrMRF],folding stability dG unfold,[1],2.96 ± 0.16 kcal/mol
same,folding stability dG unfold,[2],2.94 ± 0.098 kcal/mol
same,folding stability dG unfold,[3],2.82 ± 0.18 kcal/mol
SAGGSAGGSMRTLKARITLRGPDGVEYRFEFEIPAGSAEDVVAFLKNLPVPPGWEVELEVLDESAGGSAGGS [r20_162_TrMRF],folding stability dG unfold,[1],4.42 ± 0.16 kcal/mol
same,folding stability dG unfold,[2],5.54 ± 0.088 kcal/mol
same,folding stability dG unfold,[3],5.44 ± 0.1 kcal/mol
SAGGSAGGSMRVEITEVKEVRGEGGEPRYLVTVRITVPDGKEETFVYEFKTPEELEKLEVELPSAGGSAGGS [r20_130_JUSTAS],folding stability dG unfold,[1],2.55 ± 0.062 kcal/mol
same,folding stability dG unfold,[2],3.37 ± 0.038 kcal/mol
same,folding stability dG unfold,[3],3.13 ± 0.061 kcal/mol
SAGGSAGGSMSKPVKITTTRDPNSNVITIQVESEEDVIEFAKKKGINIKIEPTSENTYKLTLESAGGSAGGS [r12_810_JUSTAS],folding stability dG unfold,[1],0.0305 ± 0.079 kcal/mol
same,folding stability dG unfold,[2],-0.0494 ± 0.36 kcal/mol
same,folding stability dG unfold,[3],0.113 ± 0.21 kcal/mol
SAGGSAGGSMSTTETTVTEVTITVRSDGKVSREVKVTVTTTTTITPAGGTATVTTTTTRTPLESAGGSAGGS [r12_409_JUSTAS],folding stability dG unfold,[1],1.01 ± 0.053 kcal/mol
same,folding stability dG unfold,[2],1.3 ± 0.018 kcal/mol
same,folding stability dG unfold,[3],1.19 ± 0.051 kcal/mol
SAGGSAGGSMSTVSTVTHPDGTPLTVTTTPLPDGTVLATYSAPDGTVVATFDVSTGTTVVVPLSAGGSAGGS [r20_159_JUSTAS],folding stability dG unfold,[1],1.39 ± 0.067 kcal/mol
same,folding stability dG unfold,[2],1.5 ± 0.079 kcal/mol
same,folding stability dG unfold,[3],1.44 ± 0.074 kcal/mol
SAGGSAGGSMTAEEIAEKFPGLPPEQIKNIPIERHPDGYMTVNIEHRGPNGNKQEQQVEIPVDSAGGSAGGS [r12_1050_TrROS],folding stability dG unfold,[1],0.509 ± 0.04 kcal/mol
same,folding stability dG unfold,[2],0.505 ± 0.037 kcal/mol
same,folding stability dG unfold,[3],0.483 ± 0.16 kcal/mol
SAGGSAGGSMTETVEKAPDGTPVLVLKETEESTGDGGKTILRPSTVLLPPGTVLSTEDEVILESAGGSAGGS [r12_581_JUSTAS],folding stability dG unfold,[1],0.944 ± 0.069 kcal/mol
same,folding stability dG unfold,[2],1.83 ± 0.071 kcal/mol
same,folding stability dG unfold,[3],1.52 ± 0.072 kcal/mol
SAGGSAGGSMTFRVEVFNKKTGKVETIEVEGSLDELKALAPPGALVKIEVDGKTITIPAEELKSAGGSAGGS [r20_36_TrROS_Hall],folding stability dG unfold,[1],1.67 ± 0.021 kcal/mol
same,folding stability dG unfold,[2],1.75 ± 0.059 kcal/mol
same,folding stability dG unfold,[3],1.74 ± 0.057 kcal/mol
